Test results taken from PMC3981819, “Signaling Properties and Pharmacological Analysis of Two Sulfakinin Receptors from the Red Flour Beetle, Tribolium castaneum” (PLoS ONE, 2014).
Square brackets hold non-standard residues; d marks the D form. Ends that are not written are not given here. * marks the point of attachment. SO3H = sulfate on Tyr (sulfated tyrosine), O=S(=O)(O)*; sY = N[C@@H](Cc1ccc(OS(=O)(=O)O)cc1)C(=O)O; pGlu = O=C1CC[C@@H](C(=O)O)N1

What was measured:
[1] = biological target: Tribolium castaneum sulfakinin receptor 1 (T. castaneum)
[2] = biological target: Tribolium castaneum sulfakinin receptor 2 (T. castaneum)
[3] = biological target: Tribolium castaneum sulfakinin receptor 1 (T. castaneum); remark: listed apart in the source
[4] = biological target: Tribolium castaneum sulfakinin receptor 2 (T. castaneum); remark: listed apart in the source
[5] = biological target: Tribolium castaneum sulfakinin receptor 1 (T. castaneum); remark: listed apart in the source
[6] = biological target: Tribolium castaneum sulfakinin receptor 2 (T. castaneum); remark: listed apart in the source
[7] = biological target: Tribolium castaneum sulfakinin receptor 1 (T. castaneum); remark: listed apart in the source
[8] = biological target: Tribolium castaneum sulfakinin receptor 2 (T. castaneum); remark: listed apart in the source

Row | Binder | aequorin bioluminescence in CHO-WTA11 cells transfected with the receptor, peptide at 1 μM, % of the response to 1 μM sTrica-SK(5–13) [1] [%] | aequorin bioluminescence in CHO-WTA11 cells transfected with the receptor, peptide at 1 μM, % of the response to 1 μM sTrica-SK(5–13) [2] [%] | EC50 of aequorin bioluminescence (Ca2+) in CHO-PAM28 cells (no Gα16) transfected with the receptor [3] [nM] | EC50 of aequorin bioluminescence (Ca2+) in CHO-PAM28 cells (no Gα16) transfected with the receptor [4] [nM] | EC50 of aequorin bioluminescence (Ca2+) in CHO-WTA11 cells (Gα16) transfected with the receptor, peptide 1 fM to 1 μM [5] [nM] | EC50 of aequorin bioluminescence (Ca2+) in CHO-WTA11 cells (Gα16) transfected with the receptor, peptide 1 fM to 1 μM [6] [nM] | EC50 of CRE-luciferase bioluminescence (cAMP) in HEK293T cells cotransfected with the receptor [7] [nM] | EC50 of CRE-luciferase bioluminescence (cAMP) in HEK293T cells cotransfected with the receptor [8] [nM] | aequorin bioluminescence in CHO-WTA11 cells transfected with the receptor, peptide at 1 μM, % of the response to 1 μM sTrica-SK(5–13) (this peptide is the 100% reference) [1] [%] | aequorin bioluminescence in CHO-WTA11 cells transfected with the receptor, peptide at 1 μM, % of the response to 1 μM sTrica-SK(5–13) (this peptide is the 100% reference) [2] [%]
1 | SDD[sY]GHMRF-NH2 (N-terminus assumed; SMILES CSCC[C@H](NC(=O)[C@H](Cc1c[nH]cn1)NC(=O)CNC(=O)[C@H](Cc1ccc(OS(=O)(=O)O)cc1)NC(=O)[C@H](CC(=O)O)NC(=O)[C@H](CC(=O)O)NC(=O)[C@@H](N)CO)C(=O)N[C@@H](CCCNC(=N)N)C(=O)N[C@@H](Cc1ccccc1)C(N)=O) [1835[φ2]wp-4] | 58.2 | 41.4 |  |  |  |  |  |  |  | 
2 | FDDY(SO3H)GHMRF-NH2 (N-terminus assumed; SMILES CSCC[C@H](NC(=O)[C@H](Cc1c[nH]cn1)NC(=O)CNC(=O)[C@H](Cc1ccc(OS(=O)(=O)O)cc1)NC(=O)[C@H](CC(=O)O)NC(=O)[C@H](CC(=O)O)NC(=O)[C@@H](N)Cc1ccccc1)C(=O)N[C@@H](CCCNC(=N)N)C(=O)N[C@@H](Cc1ccccc1)C(N)=O) [sulfated C-terminal fragment of T. castaneum SK comprising amino acids 5–13] |  |  | 0.0585 | 1.61 | 0.0995 | 0.524 | 0.0049 | 1.4 | 100 | 100
3 | [pGlu]PS[sY]DRDIMSF-NH2 (SMILES CC[C@H](C)[C@H](NC(=O)[C@H](CC(=O)O)NC(=O)[C@H](CCCNC(=N)N)NC(=O)[C@H](CC(=O)O)NC(=O)[C@H](Cc1ccc(OS(=O)(=O)O)cc1)NC(=O)[C@H](CO)NC(=O)[C@@H]1CCCN1C(=O)[C@@H]1CCC(=O)N1)C(=O)N[C@@H](CCSC)C(=O)N[C@@H](CO)C(=O)N[C@@H](Cc1ccccc1)C(N)=O) [1679[φ1]wp-4] | 16.5 | 16.6 |  |  |  |  |  |  |  | 
4 | [pGlu]LASDDY(SO3H)GHMRF-NH2 (SMILES CSCC[C@H](NC(=O)[C@H](Cc1c[nH]cn1)NC(=O)CNC(=O)[C@H](Cc1ccc(OS(=O)(=O)O)cc1)NC(=O)[C@H](CC(=O)O)NC(=O)[C@H](CC(=O)O)NC(=O)[C@H](CO)NC(=O)[C@H](C)NC(=O)[C@H](CC(C)C)NC(=O)[C@@H]1CCC(=O)N1)C(=O)N[C@@H](CCCNC(=N)N)C(=O)N[C@@H](Cc1ccccc1)C(N)=O) [sulfated SK from the migratory locust, Locusta migratoria] | 75 | 79.9 |  |  | 16.8 | 776 |  |  |  | 
